Molecular target: Anbu-1 protein from Pseudomonas aeruginosa (Pa-Anbu), wild type (Pseudomonas aeruginosa PAO1)
Test: SEC-MALS; static light scattering after Superdex S200 10/300 GL; 100 µl protein at 0.5, 1 or 2 mg/ml; 30 mM MOPS/NaOH pH 7.2, 150 mM NaCl; three independent experiments

Substance: Anbu-1 protein from Pseudomonas aeruginosa (Pa-Anbu), wild type (natural protein)
- stoichiometry N: 12

— paper PMC5666114
